Laboratory results taken from US20230192820A1 (published 2023).

Molecular target: Wild type
Assay: ELISA

B1: Mab362 (antibody, V domains shown)
VH: QVQLVESGGGVVQPGRSLRLSCAASGFSFSSYGMHWVRQAPGKGLEWVAVIWYDGSDKYYADSVKGRFTISRDNSKNTLYLQLNSLRAEDTAIYYCARERYFDWIFDFWGQGTLVTVSS
VL: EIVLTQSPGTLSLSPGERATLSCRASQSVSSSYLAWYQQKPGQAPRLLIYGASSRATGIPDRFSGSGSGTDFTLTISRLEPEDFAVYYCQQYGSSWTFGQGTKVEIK
EC50: 0.64 µg/mL
